Assay results: PMC3695027, “Structural Insights into the Effector – Immunity System Tae4/Tai4 from Salmonella typhimurium” (PLoS ONE, 2013)
Where two headings read alike, the source gives them in different places.

T1: Tae4 effector protein from Salmonella typhimurium (full-length, hexahistidine-tagged) (Salmonella typhimurium, UniProt Q93IS4 1-161)
T1 construct: Tae4, Salmonella typhimurium, NP_459275.1, full-length orf; Asn2 to the C-terminal Pro161 modelled in the crystal structure; The single-expression construct was cut out of the bicistronic construct (NcoI/MfeI), so the Tae4 chain is the same in both; No tag removal is described; The crystal for PDB 4J30 held the selenomethionine-substituted complex; also called type-6-secretion amidase effector 4; …
T1 sequence: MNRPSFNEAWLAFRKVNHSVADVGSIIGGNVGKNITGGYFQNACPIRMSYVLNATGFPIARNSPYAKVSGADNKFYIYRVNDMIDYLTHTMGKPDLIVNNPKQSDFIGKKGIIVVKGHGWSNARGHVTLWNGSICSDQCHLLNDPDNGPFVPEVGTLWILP

T2: Tae4 effector protein from Salmonella typhimurium (full-length, hexahistidine-tagged) (Salmonella typhimurium, UniProt Q93IS4 1-161)
T2 chain: T1 sequence

B1: Tai4 immunity protein from Salmonella typhimurium, wild type, periplasmic (C-terminal hexahistidine tag) (natural protein)
chain: QEALTTQYSQSELLKNWALSHCLALVYKDDVVKNDARATASAYLEYGKQSVEIYHEIDEIAKKYSGLKYNGSISSDFNTMKCIDFIHDRELNELIKRRVEK
notes: Tai4, Salmonella typhimurium, NP_459276.1; Dimer in solution (cross-linking, static light scattering); the calculated dimer mass of 25.95 kDa fits the cut, tagged protein; also called Tai4wt; wild-type Tai4
B2: Tai4 immunity protein from Salmonella typhimurium, untagged, co-expressed with Tae4 (as in the Tae4/Tai4 complex) (natural protein)
chain: B1 chain
notes: Tai4, Salmonella typhimurium, NP_459276.1; Gln27 to Lys127 modelled in the crystal structure; Homodimer at the centre of the Tae4_2/Tai4_2 heterotetramer; The crystal for PDB 4J30 held the selenomethionine-substituted complex

Tests used:
[1] = biological target: Tae4-ATTO 488 (fluorescently labelled Tae4 from Salmonella typhimurium) (Salmonella typhimurium); experiment: stopped-flow fluorescence kinetics; dissociation: preassembled Tae4-ATTO 488/Tai4 complex (0.1 µM wild type or 0.2 µM mutant) chased with 1 or 2 µM unlabelled Tae4; apparent dissociation rate constant; limit for the wild type from simulated traces; KD calculated as koff/kon with the kon of the direct mixing
[2] = biological target: Tae4-ATTO 488 (fluorescently labelled Tae4 from Salmonella typhimurium) (Salmonella typhimurium); experiment: stopped-flow fluorescence kinetics; association by direct mixing: 0.1 µM Tae4-ATTO 488 with 0.3-1.5 µM Tai4; 293 K; 50 mM MES pH 6.5, 200 mM NaCl; kobs against Tai4 concentration, kon from the slope
[3] = biological target: Tae4-ATTO 488 (fluorescently labelled Tae4 from Salmonella typhimurium) (Salmonella typhimurium); experiment: stopped-flow fluorescence kinetics; dissociation: preassembled Tae4-ATTO 488/Tai4 complex (0.1 µM wild type or 0.2 µM mutant) chased with 1 or 2 µM unlabelled Tae4; apparent dissociation rate constant; limit for the wild type from simulated traces; KD calculated as koff/kon with the kon of the direct mixing; remark: listed apart in the source
[4] = biological target: T1, Tae4 effector protein from Salmonella …; experiment: stopped-flow fluorescence kinetics; association by intrinsic tryptophan fluorescence (excitation 280 nm): 1.8 µM unlabelled Tae4 with 2.3-9.9 µM wild-type Tai4; 50 mM MES pH 6.5, 200 mM NaCl; data not shown; conditions: both partners purified
[5] = biological target: T2, Tae4 effector protein from Salmonella …; experiment: ITC
[6] = biological target: the molecule itself; experiment: cross-linking; glutaraldehyde, 0.25 µg/µl protein in 20 mM HEPES pH 7.5, 37°C, aliquots 0 to 60 min, Coomassie-stained SDS-PAGE
[7] = biological target: T1, Tae4 effector protein from Salmonella …; experiment: ITC; 29.5 µM wild-type Tai4 titrated into 2.17 µM Tae4 in the cell; 293 K; 50 mM MES pH 6.5, 200 mM NaCl; single-site binding model; conditions: both partners purified
[8] = biological target: T1, Tae4 effector protein from Salmonella …; experiment: SEC-MALS; Superdex200 10/300 GL with multiangle light scattering detector; 50 mM Tris-HCl pH 8.0, 200 mM NaCl; 100 µM protein, 40 µl applied, 0.5 ml/min; conditions: both partners purified

| Molecule | Kd [1] [nM] | koff [1] [s⁻¹] | kon [2] [M⁻¹ s⁻¹] | also measured |
| --- | --- | --- | --- | --- |
| Tai4 immunity protein from Salmonella typhimurium, wild type, periplasmic (C-terminal hexahistidine tag) (from UniProt Q8ZRL5 27-127) (natural protein) | < 0.28 | < 0.0007 | 2.48e+06 | koff [3]: 7e-05 to 0.0007 s⁻¹ |
| Tai4(E71A_S98A) variant of the immunity protein from Salmonella typhimurium (C-terminal hexahistidine tag) (natural protein) | 255 | 0.716 | 2.81e+06 | – |
| B1 | – | – | – | kon [4]: 2.57e+06 ± 233000 M⁻¹ s⁻¹; Kd [5]: 1.28 nM; stoichiometry N [6]: 2; Kd [7]: < 1 nM |
| B2 | – | – | – | stoichiometry N [8]: 1 Tai4 per Tae4 (2:2) |
